Test results from patent publication US20250011380A1 (published 2025).
Several values for one entry are separate records, joined by “and”; a condition that tells them apart may be missing. Equal values may be shown once.

Target: TGF-β1 (UniProt P01137 279-390)
Experiment: cell-based or functional assay

TGF-β1, sequence (P01137 279-390 limits assumed): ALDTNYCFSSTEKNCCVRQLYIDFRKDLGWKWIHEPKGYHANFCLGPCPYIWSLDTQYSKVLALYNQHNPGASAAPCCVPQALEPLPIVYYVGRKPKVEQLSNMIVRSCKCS

IC50, HEK-Blue TGF-β cells, 0.1 nM TGF-β1: 470 pM | IC50, HEK-Blue TGFβ reporter cells, 0.1 nM TGFβ1: 461 pM and 559 pM | fold lower TGF-β1 blocking activity than TGFRt15-TGFRs or TGFRt15*-TGFRs: ~10 fold
B1: human recombinant TGFβRII/Fc (Fc fusion, UniProt P37173 23-159, looked up, not shown: a dimerising Fc or GST)
chain: TIPPHVQKSVNNDMIVTDNNGAVKFPQLCKFCDVRFSTCDNQKSCMSNCSITSICEKPQEVCVAVWRKNDENITLETVCHDPKLPYHDFILEDAASPKCIMKEKKKPGETFFMCSCSSDECNDNIIFSEEYNTSNPD
